Patent publication US20240009241A1 (published 2024)

Key:
[1] = target: T1, EGFR L858R peptide on HLA-A*33:03 (human); assay: multimer staining
T1 peptide: HVKITDFGR

[2] = target: T2, EGFR L858R peptide on HLA-A*33:01 (human); assay: killing
T2 peptide: HVKITDFGR

Binder	binding result [1]	binding result [2]
EGFRA33 TCR33-32L (TCR, V domains shown) Valpha: not shown Vbeta: GVIQSPRHEVTEMGQEVTLRCKPISGHNSLFWYRQTMMRGLELLIYFNNNVPIDDSGMPEDRFSAKMPNASFSTLKIQPSEPRDSAVYFCASRAGTGEVNEQFFGPGTRLTVL	recognises	
EGFRA33 TCRA33-37-3 (TCR, V domains shown) Valpha: AQKITQTQPGMFVQEKEAVTLDCTYDTSDQSYGLFWYKQPSSGEMIFLIYQGSYDEQNATEGRYSLNFQKARKSANLVISASQLGDSAMYFCAMREVFGNEKLTFGTGTRLTIIP Vbeta: EEVAQTPKHLVRGEGQKAKLYCAPIKGHSYVFWYQQVLKNEFKFLISFQNENVFDETGMPKGRFSAKCLPNSPCSLEIQATKLEDSAVYFCASSHRSWKGGDTQPQHFGDGTRLSIL	recognises	
EGFRA33 TCRA33-37-4 (TCR, V domains shown) Valpha: AQKITQTQPGMFVQEKEAVTLDCTYDTSDPSYGLFWYKQPSSGEMIFLIYQGSYDQQNATEGRYSLNFQKARKSANLVISASQLGDSAMYFCAMRSGHLSNFGNEKLTFGTGTRLTIIP Vbeta: EEVAQTPKHLVRGEGQKAKLYCAPIKGHSYVFWYQQVLKNEFKFLISFQNENVFDETGMPKGRFSAKCLPNSPCSLEIQATKLEDSAVYFCASSHRSWKGGDTQPQHFGDGTRLSIL	recognises	
EGFRA33 TCRA33-32H (TCR, V domains shown) Valpha: QKITQTQPGMFVQEKEAVTLDCTYDTSDQSYGLFWYKQPSSGEMIFLIYQGSYDEQNATEGRYSLNFQKARKSANLVISASQLGDSAMYFCAMREVFGNEKLTFGTGTRLTIIP Vbeta: EEVAQTPKHLVRGEGQKAKLYCAPIKGHSYVFWYQQVLKNEFKFLISFQNENVFDETGMPKERFSAKCLPNSPCSLEIQATKLEDSAVYFCASSPPPSNTYNEQFFGPGTRLTVL	recognises	recognises
